Source: patent US20110256144A1 (TORAY INDUSTRIES, published 2011)

Legend:
[1] = molecular target: T1, human CAPRIN-1 protein on human cancer cells (human, UniProt Q14444 2-709); assay: cell-based or functional assay
T1 sequence (looked up): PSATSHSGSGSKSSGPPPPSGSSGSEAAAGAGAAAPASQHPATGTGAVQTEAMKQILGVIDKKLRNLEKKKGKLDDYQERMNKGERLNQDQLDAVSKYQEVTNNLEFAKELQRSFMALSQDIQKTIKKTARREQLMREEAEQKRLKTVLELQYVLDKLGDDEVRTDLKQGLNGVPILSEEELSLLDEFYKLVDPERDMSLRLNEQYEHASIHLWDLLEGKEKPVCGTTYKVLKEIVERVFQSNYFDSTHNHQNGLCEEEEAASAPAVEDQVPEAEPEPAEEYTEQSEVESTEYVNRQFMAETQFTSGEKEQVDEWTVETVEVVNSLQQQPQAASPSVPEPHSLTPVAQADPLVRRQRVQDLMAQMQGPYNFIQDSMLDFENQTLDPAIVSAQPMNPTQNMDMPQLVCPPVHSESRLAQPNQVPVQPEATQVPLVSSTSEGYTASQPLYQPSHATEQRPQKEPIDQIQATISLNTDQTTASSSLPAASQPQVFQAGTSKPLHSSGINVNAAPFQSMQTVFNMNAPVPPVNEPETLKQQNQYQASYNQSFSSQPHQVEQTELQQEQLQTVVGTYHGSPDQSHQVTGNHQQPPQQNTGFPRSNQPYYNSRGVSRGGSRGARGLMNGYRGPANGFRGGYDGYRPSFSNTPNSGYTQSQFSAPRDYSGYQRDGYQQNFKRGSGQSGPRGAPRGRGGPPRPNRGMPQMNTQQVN

[2] = molecular target: T1, human CAPRIN-1 protein on human cancer …; assay: flow cytometry, hybridoma supernatant on human breast cancer, glioma, kidney, gastric, colon, lung cancer and leukemia cell lines; increase in MFI over control
Experimental: Each cell line (10⁶ cells) was centrifuged in a 1.5-ml microcentrifugal tube. The hybridoma supernatants (100 μl each) containing monoclonal antibodies #1 to #10 against CAPRIN-1 prepared in Example 4 reacting to cancer cell surfaces were separately added thereto and then left to stand on ice for 1 hour. After washing with PBS, each resultant was suspended in an FITC-labeled goat anti-mouse IgG antibody (Invitrogen Corporation) diluted 500-fold with PBS containing 0.1% FBS and then left to stand on ice for 1 hour. After washing with PBS, fluorescence intensity was measured using FACSCalibur (Becton, Dickinson and Company). Meanwhile, a procedure similar to the above was performed using, as a control, the control antibody prepared in (5) above instead of the hybridoma supernatants containing monoclonal antibodies #1 to […] against CAPRIN-1, so that a control was prepared. […] Based on the above, it was confirmed that the CAPRIN-1 protein was expressed on the cell surfaces of the above human cancer cell lines. In addition, the rate of increase in fluorescence intensity is represented by the rate of increase in mean fluorescence intensity (MFI value) in cells. It was calculated by the following equation.

Binder	ADCC activity (chromium 51 release, mouse lymphocytes), MDA-MB-157 cells [1]	CDC activity (chromium 51 release, rabbit serum), MDA-MB-231V cells [1]	increase in fluorescence intensity over control [2]
monoclonal antibody #7 against CAPRIN-1 (antibody, V domains shown, Mouse monoclonal antibody from a hybridoma; also called the #7 monoclonal antibody to CAPRIN-1; antibody (g)) VH: LQESGAELARPGASVKLSCKASGYTFTSYWMQWVKQRPGQGLEWIGAIYPGDGDTRYTQKFKGKATLTADKSSSTAYMQLSSLASEDSAVYYCARGEYGNYFAYWGQGTTVTVSS VL: TSDASLGERVTITCKASQDINSYLSWFQQKPGKSPKTLIYRANRLVDGVPSRFSGSGSGQDYSLTISSLEYEDMGIYYCLQYDEFPLTFGGGTKLEIKQ	≥ 20%	≥ 30%	≥ 30%
monoclonal antibody #1 against CAPRIN-1 (antibody, V domains shown, also called the #1 monoclonal antibody to CAPRIN-1; antibody (a)) VH: EVQLHQFGAELVKPGASVKISCKASGYTFTDYNMDWVKQSHGKSLEWIGDINPNYDSTSYNQKFKGKATLTVDKSSSTAYMELRSLTSEDTAVYYCARSRSYDYEGFAYWGQGTLVTVSA VL: DIQMTQSPASLSASVGETVTITCRASGNIHNYLAWYQQKQGKSPQLLVYNAKTLADGVPSRFSGSGSGTQYSLKINSLQPEDFGSYYCQHFWSTLTFGAGTKLELKR	≥ 20%	≥ 30%	≥ 30%
monoclonal antibody #3 against CAPRIN-1 (antibody, V domains shown, Mouse monoclonal antibody from a hybridoma; also called the #3 monoclonal antibody to CAPRIN-1; antibody (c)) VH: EVQLHQFGAELVKPGASVKISCKASGYTFTDYNMDWVKQSHGKSLEWIGDINPNYDSTSYNQKFKGKATLTVDKSSSTAYMELRSLTSEDTAVYYCARSRSYDYEGFAYWGQGTLVTVSA VL: DIQLTQSPASLSASVGETVTITCRASGNIHNYLAWYQQKQGKSPQLLVYNAKTLADGVPSRFSGSGSGTQYSLKINSLQPEDFGSYYCQHFWSTLTFGGGTKLEIK	≥ 20%	≥ 30%	≥ 30%
monoclonal antibody #4 against CAPRIN-1 (antibody, V domains shown, Mouse monoclonal antibody from a hybridoma; also called the #4 monoclonal antibody to CAPRIN-1; antibody (d)) VH: EVQLHQFGAELVKPGASVKISCKASGYTFTDYNMDWVKQSHGKSLEWIGDINPNYDSTSYNQKFKGKATLTVDKSSSTAYMELRSLTSEDTAVYYCARSRSYDYEGFAYWGQGTLVTVSA VL: SGDRVSLSCRASQSISNYLHWYQQKSHESPRLLIKYASQSISGIPSRFSGSGSGTDFTLSINSVETEDFGMYFCQQSNSWPYTFGAGTKLEIKQ	≥ 20%	≥ 30%	≥ 30%
